Data as given in patent US20220064329A1 (Novo Nordisk, published 2022).

T1: recombinant human activated Factor VII (FVIIa) (human, UniProt P08709 61-212; P08709 213-466, ten glutamate residues of the Gla domain may be gamma-carboxylated)
T1 construct: chains tethered by a disulfide bond; also called Factor VIIa; rFVIIa
T1 sequence 1: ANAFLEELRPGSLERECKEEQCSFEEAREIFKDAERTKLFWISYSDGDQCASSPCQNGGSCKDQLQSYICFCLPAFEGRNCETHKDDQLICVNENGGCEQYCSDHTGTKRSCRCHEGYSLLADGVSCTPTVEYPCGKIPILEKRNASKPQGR
T1 sequence 2: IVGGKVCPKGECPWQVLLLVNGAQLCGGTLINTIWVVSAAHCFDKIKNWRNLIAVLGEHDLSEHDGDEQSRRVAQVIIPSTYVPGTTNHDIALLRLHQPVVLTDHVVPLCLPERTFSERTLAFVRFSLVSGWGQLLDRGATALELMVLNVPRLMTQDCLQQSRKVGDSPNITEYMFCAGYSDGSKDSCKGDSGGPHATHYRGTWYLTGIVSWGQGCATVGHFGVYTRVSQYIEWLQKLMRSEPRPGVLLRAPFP

B1: VH SEQ ID NO 618 / VL SEQ ID NO 454 (antibody, IgG4, V domains shown)
VH: QVQLQESGPGLVKPSQTLSLTCTVSGYSISSDSAWSWIRQFPGKGLEWIGYIQYSGSTNYNPSLKSRVTISRDTSKNQFSLKLSSVTAADTAVYYCARSVNYYGNSFAVGPWGQGTLVTVSS
VL: EIVLTQSPATLSLSPGERATLSCRASQGVSDYLHWYQQKPGEAPRLLIKYASQPATGIPARFSGSGSGTDFTLTISSLEPEDFAVYYCQNGHSFPLTFGQGTKLEIK
notes: humanized 11F2; IgG4 S228P/kappa
B2: VH SEQ ID NO 626 / VL SEQ ID NO 334 (antibody, IgG4, V domains shown)
VH: QVQLQESGPGLVKPSQTLSLTCTVSGYSISSDSAWSWIRQPPGKGLEWIGYIQYSGSTNYNPSLKSRVTISRDTSKNQFSLKLSSVTAADTAVYYCARSVNYYGNSFAVGPWGQGTLVTVSS
VL: EIVLTQSPATLSLSPGERATLSCRASQGISDYLHWYQQKPGQAPRLLIKYASQPATGIPARFSGSGSGTDFTLTISSLEPEDFAVYYCQNGHSFPLTFGQGTKLEIK
notes: as for B1
B3: VH SEQ ID NO 626 / VL SEQ ID NO 318 (antibody, IgG4, V domains shown)
VH: QVQLQESGPGLVKPSQTLSLTCTVSGYSISSDSAWSWIRQPPGKGLEWIGYIQYSGSTNYNPSLKSRVTISRDTSKNQFSLKLSSVTAADTAVYYCARSVNYYGNSFAVGPWGQGTLVTVSS
VL: EIVLTQSPATLSLSPGERATLSCRASQGISDYLHWYQQKPGEAPRLLIKYTSQPATGIPARFSGSGSGTDFTLTISSLEPEDFAVYYCQNGHSFPLTFGQGTKLEIK
notes: as for B1
B4: VH SEQ ID NO 626 / VL SEQ ID NO 414 (antibody, IgG4, V domains shown)
VH: QVQLQESGPGLVKPSQTLSLTCTVSGYSISSDSAWSWIRQPPGKGLEWIGYIQYSGSTNYNPSLKSRVTISRDTSKNQFSLKLSSVTAADTAVYYCARSVNYYGNSFAVGPWGQGTLVTVSS
VL: EIVLTQSPATLSLSPGERATLSCRASQGVSDYLAWYQQKPGQAPRLLIKYASQPATGIPARFSGSGSGTDFTLTISSLEPEDFAVYYCQNGHSFPLTFGQGTKLEIK
notes: as for B1
B5: VH SEQ ID NO 618 / VL SEQ ID NO 486 (antibody, IgG4, V domains shown)
VH: QVQLQESGPGLVKPSQTLSLTCTVSGYSISSDSAWSWIRQFPGKGLEWIGYIQYSGSTNYNPSLKSRVTISRDTSKNQFSLKLSSVTAADTAVYYCARSVNYYGNSFAVGPWGQGTLVTVSS
VL: EIVLTQSPATLSLSPGERATLSCRASQGVSDYLHWYQQKPGQAPRLLIKYASQPATGIPARFSGSGSGTDFTLTISSLEPEDFGVYYCQNGHSFPLTFGQGTKLEIK
notes: as for B1
B6: VH SEQ ID NO 618 / VL SEQ ID NO 470 (antibody, IgG4, V domains shown)
VH: QVQLQESGPGLVKPSQTLSLTCTVSGYSISSDSAWSWIRQFPGKGLEWIGYIQYSGSTNYNPSLKSRVTISRDTSKNQFSLKLSSVTAADTAVYYCARSVNYYGNSFAVGPWGQGTLVTVSS
VL: EIVLTQSPATLSLSPGERATLSCRASQGVSDYLHWYQQKPGQAPRLLIKYASQPATGIPARFSGSGSGTDFTLTISSLEPEDFAVYYCQNGHSFPLTFGQGTKLEIK
notes: as for B1
B7: VH SEQ ID NO 626 / VL SEQ ID NO 398 (antibody, IgG4, V domains shown)
VH: QVQLQESGPGLVKPSQTLSLTCTVSGYSISSDSAWSWIRQPPGKGLEWIGYIQYSGSTNYNPSLKSRVTISRDTSKNQFSLKLSSVTAADTAVYYCARSVNYYGNSFAVGPWGQGTLVTVSS
VL: EIVLTQSPATLSLSPGERATLSCRASQGVSDYLAWYQQKPGEAPRLLIKYTSQPATGIPARFSGSGSGTDFTLTISSLEPEDFAVYYCQNGHSFPLTFGQGTKLEIK
notes: as for B1
B8: VH SEQ ID NO 626 / VL SEQ ID NO 382 (antibody, IgG4, V domains shown)
VH: QVQLQESGPGLVKPSQTLSLTCTVSGYSISSDSAWSWIRQPPGKGLEWIGYIQYSGSTNYNPSLKSRVTISRDTSKNQFSLKLSSVTAADTAVYYCARSVNYYGNSFAVGPWGQGTLVTVSS
VL: EIVLTQSPATLSLSPGERATLSCRASQGLSDYLHWYQQKPGEAPRLLIKYASQPATGIPARFSGSGSGTDFTLTISSLEPEDFAVYYCQNGHSFPLTFGQGTKLEIK
notes: as for B1
B9: VH SEQ ID NO 626 / VL SEQ ID NO 310 (antibody, IgG4, V domains shown)
VH: QVQLQESGPGLVKPSQTLSLTCTVSGYSISSDSAWSWIRQPPGKGLEWIGYIQYSGSTNYNPSLKSRVTISRDTSKNQFSLKLSSVTAADTAVYYCARSVNYYGNSFAVGPWGQGTLVTVSS
VL: EIVLTQSPATLSLSPGERATLSCRASQGISDYLAWYQQKPGQAPRLLIKYASQPATGIPARFSGSGSGTDFTLTISSLEPEDFAVYYCQNGHSFPLTFGQGTKLEIK
notes: as for B1
B10: VH SEQ ID NO 618 / VL SEQ ID NO 502 (antibody, IgG4, V domains shown)
VH: QVQLQESGPGLVKPSQTLSLTCTVSGYSISSDSAWSWIRQFPGKGLEWIGYIQYSGSTNYNPSLKSRVTISRDTSKNQFSLKLSSVTAADTAVYYCARSVNYYGNSFAVGPWGQGTLVTVSS
VL: EIVLTQSPATLSLSPGERATLSCRASQGVSDYLHWYQQKPGQAPRLLIKYTSQPATGIPARFSGSGSGTDFTLTISSLEPEDFAVYYCQNGHSFPLTFGQGTKLEIK
notes: as for B1
B11: VH SEQ ID NO 618 / VL SEQ ID NO 494 (antibody, IgG4, V domains shown)
VH: QVQLQESGPGLVKPSQTLSLTCTVSGYSISSDSAWSWIRQFPGKGLEWIGYIQYSGSTNYNPSLKSRVTISRDTSKNQFSLKLSSVTAADTAVYYCARSVNYYGNSFAVGPWGQGTLVTVSS
VL: EIVLTQSPATLSLSPGERATLSCRASQGVSDYLHWYQQKPGQAPRLLIKYASQPATGIPARFSGSGSGTDFTLTISSLEPEDVAVYYCQNGHSFPLTFGQGTKLEIK
notes: as for B1
B12: VH SEQ ID NO 626 / VL SEQ ID NO 406 (antibody, IgG4, V domains shown)
VH: QVQLQESGPGLVKPSQTLSLTCTVSGYSISSDSAWSWIRQPPGKGLEWIGYIQYSGSTNYNPSLKSRVTISRDTSKNQFSLKLSSVTAADTAVYYCARSVNYYGNSFAVGPWGQGTLVTVSS
VL: EIVLTQSPATLSLSPGERATLSCRASQGVSDYLAWYQQKPGQAPRLLIKYASQPATGIPARFSGSGSGTDFTLTISSLEPEDFAVYYCQNGHSFPLTFGAGTKLEIK
notes: as for B1
B13: VH SEQ ID NO 626 / VL SEQ ID NO 342 (antibody, IgG4, V domains shown)
VH: QVQLQESGPGLVKPSQTLSLTCTVSGYSISSDSAWSWIRQPPGKGLEWIGYIQYSGSTNYNPSLKSRVTISRDTSKNQFSLKLSSVTAADTAVYYCARSVNYYGNSFAVGPWGQGTLVTVSS
VL: EIVLTQSPATLSLSPGERATLSCRASQGISDYLHWYQQKPGQAPRLLIKYTSQPATGIPARFSGSGSGRDFTLTISSLEPEDFAVYYCQNGHSFPLTFGAGTKLELK
notes: as for B1
B14: VH SEQ ID NO 626 / VL SEQ ID NO 326 (antibody, IgG4, V domains shown)
VH: QVQLQESGPGLVKPSQTLSLTCTVSGYSISSDSAWSWIRQPPGKGLEWIGYIQYSGSTNYNPSLKSRVTISRDTSKNQFSLKLSSVTAADTAVYYCARSVNYYGNSFAVGPWGQGTLVTVSS
VL: EIVLTQSPATLSLSPGERATLSCRASQGISDYLHWYQQKPGEAPRLLIKYTSQPATGIPARFSGSGSGTDFTLTISSLEPEDFGVYYCQNGHSFPLTFGAGTKLELK
notes: as for B1
B15: VH SEQ ID NO 626 / VL SEQ ID NO 390 (antibody, IgG4, V domains shown)
VH: QVQLQESGPGLVKPSQTLSLTCTVSGYSISSDSAWSWIRQPPGKGLEWIGYIQYSGSTNYNPSLKSRVTISRDTSKNQFSLKLSSVTAADTAVYYCARSVNYYGNSFAVGPWGQGTLVTVSS
VL: EIVLTQSPATLSLSPGERATLSCRASQGVSDYLAWYQQKPGEAPRLLIKYASQPATGIPARFSGSGSGTDFTLTISSLEPEDFAVYYCQNGHSFPLTFGQGTKLEIK
notes: as for B1
B16: VH SEQ ID NO 626 / VL SEQ ID NO 350 (antibody, IgG4, V domains shown)
VH: QVQLQESGPGLVKPSQTLSLTCTVSGYSISSDSAWSWIRQPPGKGLEWIGYIQYSGSTNYNPSLKSRVTISRDTSKNQFSLKLSSVTAADTAVYYCARSVNYYGNSFAVGPWGQGTLVTVSS
VL: EIVLTQSPATLSLSPGERATLSCRASQGISDYLHWYQQKPGQAPRLLIKYTSQPATGIPARFSGSGSGTDFTLTISSLEPEDFAVYYCQNGHSFPLTFGAGTKLELK
notes: as for B1
B17: VH SEQ ID NO 618 / VL SEQ ID NO 478 (antibody, IgG4, V domains shown)
VH: QVQLQESGPGLVKPSQTLSLTCTVSGYSISSDSAWSWIRQFPGKGLEWIGYIQYSGSTNYNPSLKSRVTISRDTSKNQFSLKLSSVTAADTAVYYCARSVNYYGNSFAVGPWGQGTLVTVSS
VL: EIVLTQSPATLSLSPGERATLSCRASQGVSDYLHWYQQKPGQAPRLLIKYASQPATGIPARFSGSGSGTDFTLTISSLEPEDFAVYYCQQGHSFPLTFGQGTKLEIK
notes: as for B1
B18: VH SEQ ID NO 626 / VL SEQ ID NO 358 (antibody, IgG4, V domains shown)
VH: QVQLQESGPGLVKPSQTLSLTCTVSGYSISSDSAWSWIRQPPGKGLEWIGYIQYSGSTNYNPSLKSRVTISRDTSKNQFSLKLSSVTAADTAVYYCARSVNYYGNSFAVGPWGQGTLVTVSS
VL: EIVLTQSPATLSLSPGERATLSCRASQGISDYLHWYQQKPGQAPRLLIKYTSQPATGIPARFSGSGSGTDFTLTISSLEPEDFAVYYCQNGHSFPLTFGQGTKLEIK
notes: as for B1
B19: VH SEQ ID NO 626 / VL SEQ ID NO 366 (antibody, IgG4, V domains shown)
VH: QVQLQESGPGLVKPSQTLSLTCTVSGYSISSDSAWSWIRQPPGKGLEWIGYIQYSGSTNYNPSLKSRVTISRDTSKNQFSLKLSSVTAADTAVYYCARSVNYYGNSFAVGPWGQGTLVTVSS
VL: EIVLTQSPATLSLSPGERATLSCRASQGLSDYLAWYQQKPGEAPRLLIKYASQPATGIPARFSGSGSGTDFTLTISSLEPEDFAVYYCQNGHSFPLTFGQGTKLEIK
notes: as for B1
B20: VH SEQ ID NO 618 / VL SEQ ID NO 462 (antibody, IgG4, V domains shown)
VH: QVQLQESGPGLVKPSQTLSLTCTVSGYSISSDSAWSWIRQFPGKGLEWIGYIQYSGSTNYNPSLKSRVTISRDTSKNQFSLKLSSVTAADTAVYYCARSVNYYGNSFAVGPWGQGTLVTVSS
VL: EIVLTQSPATLSLSPGERATLSCRASQGVSDYLHWYQQKPGQAPRLLIKYASQPATGIPARFSGSGSGTDFTLTISSLEPEDFAVYYCQNGHSFPLTFGAGTKLEIK
notes: as for B1

Target: T1, recombinant human activated Factor VII …
Test: BLI (Fortebio)

Row | Binder | Kd [nM]
1 | B1 | 1.3
2 | B2 | 0.95
3 | B3 | 0.71
4 | B4 | 18
5 | B5 | 1.2
6 | B6 | 1.2
7 | B7 | 820
8 | B8 | 1.1
9 | B9 | 9.2
10 | B10 | 1.2
11 | B11 | 1.4
12 | B12 | 87
13 | B13 | 0.85
14 | B14 | 0.79
15 | B15 | 27
16 | B16 | 0.65
17 | B17 | 2
18 | B18 | 0.72
19 | B19 | 87
20 | B20 | 1.4
